Reference: article PMC5914118, “Exploiting the Concept of Multivalency with ^68Ga- and ^89Zr-Labelled Fusarinine C-Minigastrin Bioconjugates for Targeting CCK2R Expression” (Contrast Media & Molecular Imaging, 2018)
Where two headings read alike, the source gives them in different places. Marks after values point to notes of the source that are not given here.

Tests used:
[1] = format: physicochemical
Procedure: Aliquots (50 μL) of ^68Ga- and ^89Zr-labelled mono-, di-, and trimer (10 μM) were diluted in 450 μL PBS. After adding 500 μL octanol the mixture was vortexed with 1400 rpm (MS 3 basic vortexer, IKA, Staufen, Germany) for 15 min at RT followed by centrifugation for 2 min at 4500 rpm. Subsequently, 100 μL aliquots of the organic and the aqueous layer were collected and logD values were calculated using Excel (n = 3, six replicates) after gamma counter measurement.

[2] = test system: A431-CCK2R/A431-mock tumour xenografted BALB/c nude mice; conditions: mouse, in vivo
Procedure: All animal experiments were conducted in compliance with the Austrian and Dutch animal protection laws and with approval of the Austrian Ministry of Science (BMWF-66.011/000604-II/3b/2012 and BMWFW-66.011/0049-WF/II/3b/2014). In vivo stability studies were conducted in 5-week-old female BALB/c mice (in-house breed, ZVTA Innsbruck, Dr. Hermann Dietrich). The biodistribution studies were performed using female 8−10-week-old athymic BALB/c nude mice (Charles River Laboratories, Sulzfeld, Germany). Tumour xenografts were induced by subcutaneous injection of 2 × 10^6 A431-CCK2R cells (receptor positive) in the right and the same amount of A431-mock (receptor negative) in the left flank. Tumours were allowed to grow until they had reached a volume of 0.3–0.6 cm^3. To evaluate the biodistribution profile nude mice (n = 4) were intravenously injected with either 1-2 MBq ^68Ga- or 0.3 MBq ^89Zr-labelled mono-, di-, and trimer (0.1–0.2 nmol). The animals were sacrificed by cervical dislocation after 1 h as well as 2 h and 4 h in case of ^68Ga- and ^89Zr-labelled trimer, followed by the collection of organs and tissue. The collected samples were measured in the gamma counter and the results were calculated as percentage of injected dose per gram tissue (% ID/g).

## CSCC[C@H](NC(=O)[C@H](Cc1c[nH]c2ccccc12)NC(=O)CNC(=O)[C@H](Cc1ccc(O)cc1)NC(=O)[C@H](C)NC(=O)[C@@H](CCC(=O)O)NC(=O)CCSC1CC(=O)N(CCC(=O)NC2CCCN(O)C(=O)C=C(C)CCOC(=O)C(NC(=O)CCN3C(=O)CC(SCCC(=O)N[C@H](CCC(=O)O)C(=O)N[C@@H](C)C(=O)N[C@@H](Cc4ccc(O)cc4)C(=O)NCC(=O)N[C@@H](Cc4c[nH]c5ccccc45)C(=O)N[C@@H](CCSC)C(=O)N[C@@H](CC(=O)O)C(=O)N[C@@H](Cc4ccccc4)C(N)=O)C3=O)CCCN(O)C(=O)C=C(C)CCOC(=O)C(NC(C)=O)CCCN(O)C(=O)C=C(C)CCOC2=O)C1=O)C(=O)N[C@@H](CC(=O)O)C(=O)N[C@@H](Cc1ccccc1)C(N)=O (some centres unmarked) [^89Zr-labelled Dimer, metal not drawn]
[1]
  Distribution coefficient logD (pH 7.4): −2.83 ± 0.02
[2]
  Tumour-to-organ ratio (T/O): A431-mock: 11.2 ± 2.3
  Tumour-to-organ ratio (T/O): Blood: 7.4 ± 2.3^c
  Tumour-to-organ ratio (T/O): Bone: 7.4 ± 1.2^c
  Tumour-to-organ ratio (T/O): Heart: 9.8 ± 4.8
  Tumour-to-organ ratio (T/O): Intestine: 12.5 ± 3.1
  Tumour-to-organ ratio (T/O): Kidneys: 0.15 ± 0.06
  Tumour-to-organ ratio (T/O): Liver: 10.3 ± 3.2^c
  Tumour-to-organ ratio (T/O): Lung: 7.6 ± 2.9^c
  Tumour-to-organ ratio (T/O): Muscle: 7.9 ± 5.3
  Tumour-to-organ ratio (T/O): Pancreas: 9.2 ± 3.1^c
  Tumour-to-organ ratio (T/O): Spleen: 10.5 ± 4.5
  Tumour-to-organ ratio (T/O): Stomach: 3.4 ± 1.1
[2]; 1 h
  Biodistribution: A431-CCK2R tumour (receptor positive): 7.69 ± 1.34^ac % ID/g
  Biodistribution: A431-mock tumour (receptor negative): 0.86 ± 0.22 % ID/g
  Biodistribution: Blood: 1.17 ± 0.28 % ID/g
  Biodistribution: Bone: 1.36 ± 0.42 % ID/g
  Biodistribution: Heart: 1.01 ± 0.37 % ID/g
  Biodistribution: Intestine: 0.73 ± 0.25 % ID/g
  Biodistribution: Kidneys: 55.5 ± 10.3 % ID/g
  Biodistribution: Liver: 0.83 ± 0.20 % ID/g
  Biodistribution: Lung: 1.16 ± 0.28 % ID/g
  Biodistribution: Muscle: 1.51 ± 0.70 % ID/g
  Biodistribution: Pancreas: 0.95 ± 0.23^c % ID/g
  Biodistribution: Spleen: 0.99 ± 0.40 % ID/g
  Biodistribution: Stomach: 2.99 ± 1.13 % ID/g

## CSCC[C@H](NC(=O)[C@H](Cc1c[nH]c2ccccc12)NC(=O)CNC(=O)[C@H](Cc1ccc(O)cc1)NC(=O)[C@H](C)NC(=O)[C@@H](CCC(=O)O)NC(=O)CCSC1CC(=O)N(CCC(=O)NC2CCCN(O)C(=O)C=C(C)CCOC(=O)C(NC(C)=O)CCCN(O)C(=O)C=C(C)CCOC(=O)C(NC(C)=O)CCCN(O)C(=O)C=C(C)CCOC2=O)C1=O)C(=O)N[C@@H](CC(=O)O)C(=O)N[C@@H](Cc1ccccc1)C(N)=O (some centres unmarked) [^89Zr-labelled Monomer, metal not drawn]
[1]
  Distribution coefficient logD (pH 7.4): −3.17 ± 0.06
[2]
  Tumour-to-organ ratio (T/O): A431-mock: 7.5 ± 1.8
  Tumour-to-organ ratio (T/O): Blood: 9.0 ± 4.7^b
  Tumour-to-organ ratio (T/O): Bone: 4.7 ± 1.3^b
  Tumour-to-organ ratio (T/O): Heart: 14.8 ± 4.7^b
  Tumour-to-organ ratio (T/O): Intestine: 7.9 ± 2.3
  Tumour-to-organ ratio (T/O): Kidneys: 0.17 ± 0.03^b
  Tumour-to-organ ratio (T/O): Liver: 12.4 ± 2.8^b
  Tumour-to-organ ratio (T/O): Lung: 6.5 ± 1.6^b
  Tumour-to-organ ratio (T/O): Muscle: 15.9 ± 4.2^b
  Tumour-to-organ ratio (T/O): Pancreas: 13.3 ± 2.9^b
  Tumour-to-organ ratio (T/O): Spleen: 18.7 ± 6.1^b
  Tumour-to-organ ratio (T/O): Stomach: 4.9 ± 1.3^b
[2]; 1 h
  Biodistribution: A431-CCK2R tumour (receptor positive): 1.91 ± 0.40 % ID/g
  Biodistribution: A431-mock tumour (receptor negative): 0.26 ± 0.05^ab % ID/g
  Biodistribution: Blood: 0.30 ± 0.19^ab % ID/g
  Biodistribution: Bone: 0.42 ± 0.10^ab % ID/g
  Biodistribution: Heart: 0.14 ± 0.05^ab % ID/g
  Biodistribution: Intestine: 0.27 ± 0.10^abd % ID/g
  Biodistribution: Kidneys: 11.3 ± 2.10^ab % ID/g
  Biodistribution: Liver: 0.16 ± 0.04^abd % ID/g
  Biodistribution: Lung: 0.31 ± 0.09^ab % ID/g
  Biodistribution: Muscle: 0.13 ± 0.04^ab % ID/g
  Biodistribution: Pancreas: 0.15 ± 0.04^abd % ID/g
  Biodistribution: Spleen: 0.12 ± 0.04^ab % ID/g
  Biodistribution: Stomach: 0.42 ± 0.14^abd % ID/g

## CSCC[C@H](NC(=O)[C@H](Cc1c[nH]c2ccccc12)NC(=O)CNC(=O)[C@H](Cc1ccc(O)cc1)NC(=O)[C@H](C)NC(=O)[C@@H](CCC(=O)O)NC(=O)CCSC1CC(=O)N(CCC(=O)NC2CCCN(O)C(=O)C=C(C)CCOC(=O)C(NC(=O)CCN3C(=O)CC(SCCC(=O)N[C@H](CCC(=O)O)C(=O)N[C@@H](C)C(=O)N[C@@H](Cc4ccc(O)cc4)C(=O)NCC(=O)N[C@@H](Cc4c[nH]c5ccccc45)C(=O)N[C@@H](CCSC)C(=O)N[C@@H](CC(=O)O)C(=O)N[C@@H](Cc4ccccc4)C(N)=O)C3=O)CCCN(O)C(=O)C=C(C)CCOC(=O)C(NC(=O)CCN3C(=O)CC(SCCC(=O)N[C@H](CCC(=O)O)C(=O)N[C@@H](C)C(=O)N[C@@H](Cc4ccc(O)cc4)C(=O)NCC(=O)N[C@@H](Cc4c[nH]c5ccccc45)C(=O)N[C@@H](CCSC)C(=O)N[C@@H](CC(=O)O)C(=O)N[C@@H](Cc4ccccc4)C(N)=O)C3=O)CCCN(O)C(=O)C=C(C)CCOC2=O)C1=O)C(=O)N[C@@H](CC(=O)O)C(=O)N[C@@H](Cc1ccccc1)C(N)=O (some centres unmarked) [^89Zr-labelled Trimer, metal not drawn]
[1]
  Distribution coefficient logD (pH 7.4): −2.41 ± 0.04
[2]; 1 h
  Biodistribution: A431-CCK2R tumour (receptor positive): 4.28 ± 0.95^b % ID/g
  Biodistribution: A431-mock tumour (receptor negative): 0.81 ± 0.24^d % ID/g
  Biodistribution: Blood: 1.46 ± 0.32^d % ID/g
  Biodistribution: Bone: 1.39 ± 0.65 % ID/g
  Biodistribution: Heart: 0.92 ± 0.21^d % ID/g
  Biodistribution: Intestine: 0.56 ± 0.14^d % ID/g
  Biodistribution: Kidneys: 57.7 ± 14.4^e % ID/g
  Biodistribution: Liver: 0.84 ± 0.21^d % ID/g
  Biodistribution: Lung: 1.44 ± 0.39^d % ID/g
  Biodistribution: Muscle: 0.47 ± 0.18^cd % ID/g
  Biodistribution: Pancreas: 1.56 ± 0.44 % ID/g
  Biodistribution: Spleen: 0.79 ± 0.23^d % ID/g
  Biodistribution: Stomach: 3.10 ± 0.97 % ID/g
[2]; 2 h
  Biodistribution: A431-CCK2R tumour (receptor positive): 8.90 ± 3.10^e % ID/g
  Biodistribution: A431-mock tumour (receptor negative): 0.93 ± 0.29^d % ID/g
  Biodistribution: Blood: 1.19 ± 0.32^d % ID/g
  Biodistribution: Bone: 2.07 ± 0.68 % ID/g
  Biodistribution: Heart: 0.91 ± 0.25^d % ID/g
  Biodistribution: Intestine: 0.44 ± 0.30^d % ID/g
  Biodistribution: Kidneys: 96.5 ± 23.6^f % ID/g
  Biodistribution: Liver: 1.28 ± 0.35^d % ID/g
  Biodistribution: Lung: 1.21 ± 0.23^d % ID/g
  Biodistribution: Muscle: 0.42 ± 0.07^d % ID/g
  Biodistribution: Pancreas: 1.51 ± 0.40 % ID/g
  Biodistribution: Spleen: 0.90 ± 0.25^d % ID/g
  Biodistribution: Stomach: 3.15 ± 0.75 % ID/g
[2]; 4 h
  Biodistribution: A431-CCK2R tumour (receptor positive): 14.39 ± 3.92 % ID/g
  Biodistribution: A431-mock tumour (receptor negative): 0.66 ± 0.06^d % ID/g
  Biodistribution: Blood: 0.75 ± 0.26^d % ID/g
  Biodistribution: Bone: 4.41 ± 1.31 % ID/g
  Biodistribution: Heart: 0.91 ± 0.09^d % ID/g
  Biodistribution: Intestine: 0.65 ± 0.07^d % ID/g
  Biodistribution: Kidneys: 150.5 ± 18.3 % ID/g
  Biodistribution: Liver: 1.71 ± 0.32^d % ID/g
  Biodistribution: Lung: 0.84 ± 0.20^d % ID/g
  Biodistribution: Muscle: 0.62 ± 0.23 % ID/g
  Biodistribution: Pancreas: 2.34 ± 0.59 % ID/g
  Biodistribution: Spleen: 0.95 ± 0.13^d % ID/g
  Biodistribution: Stomach: 3.50 ± 0.86^d % ID/g
